Test results: a protein production outcome set (Wang et al. 2014)

Experiment: label from the status in PepcDB records

Sequence	protein production
MLKFLKNWTLPIAMLVGAVGYPVFISFSFLTPILIFTMLLLTFCKVSPRDLKPKPLHLWLLLIQIFGSLIVYLLLYRFNKIVAEGAMVCVICPTATAAAVITSKLGGSAASLTTYTLIANIGAAIAVPILFPLIEANPGISFIDAFLVILSKVFPLLICPFLAAWFLQRFIPKVHKVLLGYHELAFYLWGISLAIVTAQTLYSLINDPADGLTEIMIAVVALIACCLQFFLGKTLGSIYNDRISGGQALGQKNTILAIWMAHTYLNPLSAVGPGSYVLWQNIINSWQLWKKRKKESEKCSNNVSG	failed
MLKFLSVRVEDHIAVATLNHAPANAMSSQVMHDVTELIDQVEKDDNIRVVVIHGEGRFFSAGADIKEFTSVTEAKQATELAQLGQVTFERVEKCSKPVIAAIHGAALGGGLEFAMSCHMRFATESAKLGLPELTLGLIPGFAGTQRLPRYVGKAKACEMMLTSTPITGAEALKWGLVNGVFAEETFLDDTLKVAKQIAGKSPATARAVLELLQTTKSSHYYEGVQREAQIFGEVFTSEDGREGVAAFLEKRKPSFSGR	not failed
MLKFRSHTKELLDGDAIPEKDLFQNLKELDTINKLLGGYKISLSAIDELIKNAAAYKLVDIGCGGGDTLKYMYHWAKRTDKNLSLVGIDIKPVCIEYAKTNTADLPIQYICDDYKQAFNHIEKIDFIHACLFCHHLSEEQLVELIQFALINKTTLVVNDLERNPIAYYSIKWLTAIFSHSYLVKNDAPLSVARGFKKKEWEALLKKAGAATYSVKNKWAFRHQVIVYGNQ	failed
MLKHCGEFHIALKHLQLALLYTYPSTFSELQVKFQIAHLYEVQNKHKAAKDGYEFLLNEKNISLELKADVYRQLGWMYHCVECLGEKKEREANALNFLQKSIEADPKSGQSLYLLGRCYAGINKVHDAFLAYRNSVEKSEGNADTWCSIGVLYQQQNQPTDALQAYICAVQLDKDHKAAWTNLGILYESCGQLRDAYACYLNATKQISFQKSSLIRKKQAIRMKKDTIGLSKGLSQRITFLEGQLSQAPLPSITSKRRQLCSIEEAWNLPISLEMNSRQQQTAQMLPRQVTKQSPVQGPPPPYPHSQLSQSPIPSKRIKEDGTSQQEVTQNNSQTSAQNLINISESLNQRNFNAMPESNKSSEQSVLDTFDDISNDIYKQNESIKLERLSQDALSNNEDSRHDFIGGDNADISTTFKIQMDSKQLMVAVKLLPIDEPPVHCTILQVNAPPPSPPDCPPQKLTRDQLLPPTPSVHLENKKHAFSPQLQEFCLKHPIAVVRGLAGVLKLDLGLFSTKTLVEANPDHSVEVRTQVHQSPDENWDTSQGKRVWACISHRSHTTIAKYAQYQASSFQDSLKLILPQDESDKGFPGSQAMSDSDSKDSVSNSNIVLKRKKHKINSKMLRFGTNVDLSDEKKWKPQLTELQKLPAFARVISAANMLSHVGHVILGMNTVQLYMKVPGSRTPGHQENNNFCSININIGPGDCEWFAVPDAYWGGVHNLCEKNNISYLHGSWWPVLEDLYKENIPVYRFIQKPGDLVWVNAGCVHWVQSIGWCNNIAWNVGPLTARQYSLAIERYEWNKVQAFKSIVPMVHLSWNLARNIKVSDTKLFELIKMCLLQTLKNVLHIQEYVKSKGVEIRFNGRGKNEASHYCGQCEVEVFNVLFIKEQEKRHVVHCLSCALKLSPSLQGIVCLEEYRLSELQRVYDSFTLHRTQGLAYTQ	failed
MLKIRCQACSTILEASYKISYNAQDMKYKNLPVYEQKDRILEMLEHNQVIVVESPTGSGKTTQLPVILHEAGYSRSGMIGVTQPRRIAALSVSEFISKQLKEPMPGLVGYKMRFEDKTSNDTKIKIMTDGILLQELKLDPWLSKYSVILVDEAHERSLNIDFILGLLKRIITERKDFKVIISSATINTDLFSMYFDGCPVIKIDAITYPVTLIFDPPAVKASTDTQEAETALMDKIASIVGRILSEGRSGAILVFLPGERAIKDCIERLSKEPWYRKLFILPLYGRLSKEEQERVFKSPPFGKKKIVISTNIAETSITINDIAAVIDSGLAKLNFYNPFTFTSSLDETLISRASCNQRRGRAGRTQEGVCYRLYTRKDFETRQLYTLEEIYRTDLSEVVMRMAELGILDFENFDFISPPGKKGIIGAIDTLNMLDALESDRSLSSIGKMMCLFPLAPRQSRIIVEAITRYPDLVEEVLIAAAFLSARSPVIFPEGEEIEARKAHALFDEPLGDFASFLKVFRMYSQALDKERFCKIHYLDDRVMAEIANIKEQLELIVSDMGVPILSGGKMEHYLTAIAKGMIQFVCSAQGRDSYRSLTTEKIFIHPGSCMYKEKEQFIVAGEIVRTSRMYAMSVSPLSKKIIEEVAPALLERKDKRAKKEKDEHRADQKEEKKKPEEESVLIEGTRYLIKKIKGKKHLILPWKEFKLTAEAVFKKYSEENQNGALEQLKGLRGKIEINKSELLSGEKMDLILNVVNNFNIEQIEKTEDEKHFDRNKNYFIEEDLEALVNSLNLLFRTTIAKKTTKQLGFITLFCDGTGHFWFKTSRGFHTALHESLVSLQSLIDLAGENFNEDQKIIVRTIYGKMNKMI	failed
MLKKEYLKNPYLVLFAMIVLAYVFSVFCRFYWVWWASEFNEYFFNNQLMIISNDGYAFAEGARDMIAGFHQPNDLSYYGSSLSTLTYWLYKITPFSFESIILYMSTFLSSLVVIPIILLANEYKRPLMGFVAALLASVANSYYNRTMSGYYDTDMLVIVLPMFILFFMVRMILKKDFFSLIALPLFIGIYLWWYPSSYTLNVALIGLFLIYTLIFHRKEKIFYIAVILSSLTLSNIAWFYQSAIIVILFALFALEQKRLNFMIIGILGSATLIFLILSGGVDPILYQLKFYIFRSDESANLTQGFMYFNVNQTIQEVENVDFSEFMRRISGSEIVFLFSLFGFVWLLRKHKSMIMALPILVLGFLALKGGLRFTIYSVPVMALGFGFLLSEFKAILVKKYSQLTSNVCIVFATILTLAPVFIHIYNYKAPTVFSQNEASLLNQLKNIANREDYVVTWWDYGYPVRYYSDVKTLVDGGKHLGKDNFFPSFSLSKDEQAAANMARLSVEYTEKSFYAPQNDILKSDILQAMMKDYNQSNVDLFLASLSKPDFKIDTPKTRDIYLYMPARMSLIFSTVASFSFINLDTGVLDKPFTFSTAYPLDVKNGEIYLSNGVVLSDDFRSFKIGDNVVSVNSIVEINSIKQGEYKITPIDDKAQFYIFYLKDSAIPYAQFILMDKTMFNSAYVQMFFLGNYDKNLFDLVINSRDAKVFKLKI	failed
MLKKVIGILVIIAIISVGFFQKEAWLDAIKAGGMFSVLFSMLLIAADVFFPIVPFALIAALNGAVFGTANGIWITLTGSMLGTILLFFLARYSFRDWARKKVQAYPAIQSYEASFNKNAFTAVLLGRLIPVIPSLVMNVICGLSQVRWHVFFFASLIGKIPNIVVVTIAGANFTSNKLLSISIYGTYILIIMLVIYKKFPHLLKVPKK	failed
MLKKVQEHLPRQLLPAPDAITAFCHLIANWSRSELVLALTVDQQGNRAQIITTTSTKFPNLEIIAPWRDLVQGTVIDVLPFLKLPSIFFCLLSKVERIVYIPCGEPEKWCQGLLLVNPVEEPLQQLAEQKGYIAALYRQLLIHHRQSQNSFIFEAQFQDIFDTVPLGLVLIKGDSSTAMVNSYAAQWLQLPPGSHPVQIVAEHMKQGWERCDNCDELVNLFQGLAANANFSAQGECRRGEKTFLIDTHPVRGDSRLGRVWIFSDISDMRQREQALLALAWLDPLTGAFNRRFLLSRVEAYESQAATGEALLTVMIFDIDHFKRINDTYGHDQGDVVLRTLAARAKQVLESCQDGILVRWGGEEFVLLFFVAYEDQAKAVAEELCSVVRSQPVELTDQYSLSVTISLGVTLFRGGEQVLSDSIPRADQALYEAKHGGRDRWVWA	failed
MLKLFKGIYAIFLCVRECIINLFFILFLLTGFASIAFLVNGSDTNKSKEPNEKVALRLNLSGYLTDNHDDFAHRLIQSELTNDESLKASTFDVVRAIGKAAKDPNITGIVLDLSKFEGSDHSSLSFIGSELKAFKTSGKPVIAIGENYSQSQYYLASFADKIYLNKAGSINLQGLNFSSLYFKALLDKIDAVPHIFRVGTYKSAVEPFLRNDMSDEAKQNAQTLLNSIWHQFRTDIAENRMIAVDQVLPEPKSLIEKYKAVNANDAQYALNQKLVTDIGSKAEIEQALIEQFGKNEKGIYQHINYADYALNLTDRFAVNAEHKIAVINVEGEIISGKSKERSAGSETISELLRQAREDNNVDGVILRVNSPGGSVVASEIILQELQSIQQAGKPVVTSMGGLAASGGYWISATSDKIIASPNTITGSIGIFGLAMTFEKTAKHLGISEDGVATSPLAKTSSLQHLSNEHAELIQINIENGYDAFLDLVSRGRNMSKAEVDKVAQGQVWSGEDALKHGLVDQLGDFHTAYDVLTDLINQKRKAKGENEIKHFTAQWFIESDKGLFSSLLKNIGFKAKSTLAVWLGLPFVPQTQQAAELLQKFNDPQNTYLYCLTCGTIK	failed
MLKLNLKKSFQKDFDKLLLNGFDDSVLNEVILTLRKKEPLDPQFQDHALKGKWKPFRECHIKPDVLLVYLVKDDELILLRLGSHSELF	failed
MLKPVALLTPRPSPSRDPAIPDWLLAGKLEPALPRPAAVVRGALLAALDQAQARPLTLLLAPPGFGKTTLLAQWHAHLSTREQGPVAWLSLDEEDADAARFLGHLALALQNAGADHALCATVLHNRDHDPRDATALLIRALRAAPRRISVILDDYDRLGSSPVDELVLRLIEHSGGRLHLVLATRRVPNLPLARLDLHAQLSRIGSTQLALDNTEAQALLGPHVPTPVVDELRNYTEGWPVALQLARLWLQGDTQRQQEVAARFSGRSAQIAAYLAEQVVNDLDPDTRELLLRTSPLERFNAALADAVRQREDSGRLLARLEHFHGLLVPLDGEREWFRYHPLFADFLQQLLDREHPGQSVQLHQRAARWFGDHQHLAEAVRHAWRGNCGELAASYIARAGTWQLLLTHGTHEVRALLRHFDHRTIRDTPALNLTQAHLHIRLGEFSHARLLLERFRDFPAALREPLQRDYTVVVALLRDRLDEICGNPHGLTQIAAQAGALDEDDHLGRGMLLCICATTAIAQGAFAVAERYARNARDTMQRGGSDVGASQAMLSLGQSLFYRGRLSDAEACYQQALSWCARTPQLDRVLEAAAQCLLAQSHYERGHHDDAADLLHPALELLEQHDGGMDVLAAGYGTALGLERVRDHSGRSALLLLEHIEQIAHGRKLARLSELAAAWRLMLLLEHPGNAAIDVLIARTGGESGLAHTLRSPHRWHDRAAMGFALARWHRLAGRSSAALSILGQIEQACLANDNVCHLARTRARIALVLQQRGELVAALPYLYSALDHVALTQSWQAIVELGLPAKAMLRSLRQHDPQTVGGTTRALTIQALLERLSGDDDPAGDIFSERELEVLAQLARGYSNKQIARCLHLSENTVKFHLKNLYRKLDARSREGALAQALQRGLLRGSNQHADQPLQPD	failed
MLKQEKIYLVEDDTTIVNLLKNHLGQHYQVKSVDNFRAILQEVKEFKPDLILMDITLPYFNGFYWTTEIRKSMTMPIIFISSADEEMNAVMAMNMGGDDFLSKPFSLPILDAKIAAFLRRANEFTKQGHQIEEFELTLDGVFSNLERQETIQLTPTETKILSLLIDYKGEVVTKEALLNRLWEGEEFIDQNTLSVNMTRLRKKVLSVSFDKIHTVRGVGYLIK	failed
MLKRCLSPLTLVNQVALIVLLSTAIGLAGMAVSGWLVQGVQGSAHAINKAGSLRMQSYRLLAAVPLSEKDKPLIKEMEQTAFSAELTRAAERDGQLAQLQGLQDYWRNELIPALMRAQNRETVSADVSQFVAGLDQLVSGFDRTTEMRIETVVLVHRVMAVFMALLLVFTIIWLRARLLQPWRQLLAMASAVSHRDFTQRANISGRNEMAMLGTALNNMSAELAESYAVLEQRVQEKTAGLEHKNQILSFLWQANRRLHSRAPLCERLSPVLNGLQNLTLLRDIELRVYDTDDEENHQEFTCQPDMTCDDKGCQLCPRGVLPVGDRGTTLKWRLADSHTQYGILLATLPQGRHLSHDQQQLVDTLVEQLTATLALDRHQERQQQLIVMEERATIARELHDSIAQSLSCMKMQVSCLQMQGDALPESSRELLSQIRNELNASWAQLRELLTTFRLQLTEPGLRPALEASCEEYSAKFGFPVKLDYQLPPRLVPSHQAIHLLQIAREALSNALKHSQASEVVVTVAQNDNQVKLTVQDNGCGVPENAIRSNHYGMIIMRDRAQSLRGDCRVRRRESGGTEVVVTFIPEKTFTDVQGDTHE	failed
